Assays:
[1] = biological target: human FcγRIIa R extracellular domain (human) (UniProt P12318); assay: SPR; KD for FcγRIIb divided by KD for this FcγR
[2] = biological target: human FcγRIIIa V extracellular domain (human) (UniProt P08637); assay: SPR; KD for FcγRIIb divided by KD for this FcγR
[3] = biological target: human FcγRIIa R extracellular domain (human) (UniProt P12318); assay: SPR (Biacore 8K+), captured antibody, 1:1 Langmuir model
[4] = biological target: human FcγRIIIa V extracellular domain (human) (UniProt P08637); assay: as above
[5] = biological target: human FcγRIIa R extracellular domain (human) (UniProt P12318); assay: SPR; KD of G1d divided by KD of this antibody
[6] = biological target: human FcγRIIIa V extracellular domain (human) (UniProt P08637); assay: SPR; KD of G1d divided by KD of this antibody
[7] = biological target: human FcγRIIb extracellular domain with C-terminal His-tag (human) (UniProt P31994); assay: SPR (Biacore T200), FcγRIIb 1000 nM, amount bound per unit captured antibody
Sequence of human FcγRIIb extracellular domain with C-terminal His-tag (human) (P31994 43-217): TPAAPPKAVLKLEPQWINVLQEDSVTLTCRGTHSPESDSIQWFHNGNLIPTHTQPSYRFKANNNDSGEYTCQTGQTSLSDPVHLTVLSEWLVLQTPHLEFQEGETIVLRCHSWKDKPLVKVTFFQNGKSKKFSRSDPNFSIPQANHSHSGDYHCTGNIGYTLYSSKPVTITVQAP

[8] = biological target: human FcγRIIb extracellular domain with C-terminal His-tag (human) (UniProt P31994); assay: SPR; binding amount / that of MDX10D1H-G1m/MDX10D1L-k0MT

Sequence of H240-GASDALIE/L73-k0 (antibody) (heavy): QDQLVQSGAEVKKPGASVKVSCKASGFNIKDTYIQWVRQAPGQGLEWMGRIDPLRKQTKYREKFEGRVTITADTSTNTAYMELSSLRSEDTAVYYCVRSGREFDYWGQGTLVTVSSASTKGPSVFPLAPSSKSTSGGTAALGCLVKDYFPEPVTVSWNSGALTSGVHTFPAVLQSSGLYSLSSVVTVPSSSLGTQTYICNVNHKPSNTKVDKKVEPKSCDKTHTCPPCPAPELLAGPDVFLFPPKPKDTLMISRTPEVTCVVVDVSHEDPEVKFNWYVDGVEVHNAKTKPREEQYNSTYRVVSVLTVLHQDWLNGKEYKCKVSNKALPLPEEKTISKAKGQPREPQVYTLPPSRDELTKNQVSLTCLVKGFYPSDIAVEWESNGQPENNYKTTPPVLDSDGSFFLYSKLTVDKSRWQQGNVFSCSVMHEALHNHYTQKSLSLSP
Sequence of H240-GASDALIE/L73-k0 (antibody) (light): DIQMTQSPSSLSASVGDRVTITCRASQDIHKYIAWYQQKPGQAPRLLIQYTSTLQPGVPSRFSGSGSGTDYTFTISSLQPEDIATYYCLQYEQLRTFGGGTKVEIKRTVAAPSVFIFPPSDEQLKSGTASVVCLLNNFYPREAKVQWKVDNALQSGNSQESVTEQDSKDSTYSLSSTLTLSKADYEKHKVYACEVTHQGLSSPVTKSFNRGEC

A/I ratio (KD for FcγRIIb divided by KD for each FcyR) [1]	A/I ratio (KD for FcγRIIb divided by KD for each FcyR) [2]	Kd [3]	Kd [4]	Relative value to KD between G1d and hFcgRs [5]	Relative value to KD between G1d and hFcgRs [6]	Binding amount [7]	Relative binding amount [8]	Substance
16.5	176	161 nM	15.2 nM	10.3	23.6			H240-GASDALIE/L73-k0 (antibody)
						0.012		MDX10D1H-G1m/MDX10D1L-k0MT (antibody)
						0.072	5.8	MDX10D1H-GASDIE/MDX10D1L-k0MT (antibody)
